From the supplement of paper PMC9112550, “Optimization of the antimicrobial peptide Bac7 by deep mutational scanning” (BMC Biology, 2022) come the findings set out here.

This data set deals with Escherichia coli TOP10. Put plainly: shrunken log2 fold change of peptide-encoding DNA abundance (4.5 h post-induction vs induction); higher = less antimicrobial activity (less host growth inhibition). The conditions noted are these: time post-induction: 4.5 h; library: site-saturation at positions 5, 18, 19, 20.
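Further: peptides expressed intracellularly from a pBAD plasmid library in pooled LB shake-flask culture, induced with 0.3% L-arabinose, DNA abundance read by NGS, three biological replicates, DESeq2 with apeglm shrinkage.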

RRIRCRPPRLPRPRPRPTQIPRP: the “shrunken log2 fold change” value turned out to be 0.452.

Consider RRIRMRPPRLPRPRPRPEPCPRP, for which the “shrunken log2 fold change” value was 1.13.

Consider RRIRIRPPRLPRPRPRPSHHPRP, for which the “shrunken log2 fold change” value is -0.941.

Regarding RRIRTRPPRLPRPRPRPDRVPRP, the “shrunken log2 fold change” value was -0.0605.

On to RRIRLRPPRLPRPRPRPTMMPRP, for which the “shrunken log2 fold change” value is -0.282.

For RRIRHRPPRLPRPRPRPTRFPRP, the “shrunken log2 fold change” value came out at 1.65.

Turning to RRIRKRPPRLPRPRPRPHQHPRP, the “shrunken log2 fold change” value came out at 0.213.

Take RRIRLRPPRLPRPRPRPDMEPRP: the “shrunken log2 fold change” value was found to be 0.0384.

For RRIRPRPPRLPRPRPRPAGPPRP, the “shrunken log2 fold change” value turned out to be 0.314.

On to RRIRVRPPRLPRPRPRPWLRPRP, for which the “shrunken log2 fold change” value is -0.171.

As for RRIRERPPRLPRPRPRPIISPRP, the “shrunken log2 fold change” value is -0.209.

As for RRIRPRPPRLPRPRPRPNFQPRP, the “shrunken log2 fold change” value was -0.00527.

In the case of RRIRFRPPRLPRPRPRPSYRPRP, the “shrunken log2 fold change” value is -0.783.

For RRIRMRPPRLPRPRPRPHPVPRP, the “shrunken log2 fold change” value is 0.0384.

Regarding RRIRGRPPRLPRPRPRPAWQPRP, the “shrunken log2 fold change” value is 0.395.

As to RRIRRRPPRLPRPRPRPEFDPRP, the “shrunken log2 fold change” value was 0.486.

For RRIRGRPPRLPRPRPRPQVAPRP, the “shrunken log2 fold change” value was 0.34.

Regarding RRIRLRPPRLPRPRPRPCNWPRP, the “shrunken log2 fold change” value turned out to be 0.0532.

Take RRIRPRPPRLPRPRPRPYFRPRP: the “shrunken log2 fold change” value is -0.463.

Turning to RRIRERPPRLPRPRPRPRGQPRP, the “shrunken log2 fold change” value stood at 0.837.

For RRIRLRPPRLPRPRPRPWWDPRP, the “shrunken log2 fold change” value was -0.305.

RRIRMRPPRLPRPRPRPQTHPRP: the “shrunken log2 fold change” value came out at 0.318.

On to RRIRWRPPRLPRPRPRPWTGPRP, for which the “shrunken log2 fold change” value was -0.0518.

As for RRIRERPPRLPRPRPRPLSYPRP, the “shrunken log2 fold change” value was -0.193.

As to RRIRIRPPRLPRPRPRPIKWPRP, the “shrunken log2 fold change” value was -0.118.

On to RRIRYRPPRLPRPRPRPGIRPRP, for which the “shrunken log2 fold change” value is 0.0108.

For the sequence RRIRVRPPRLPRPRPRPLRQPRP, the “shrunken log2 fold change” value came to 0.395.

Consider RRIRMRPPRLPRPRPRPMIEPRP, for which the “shrunken log2 fold change” value came to 0.17.

For RRIRIRPPRLPRPRPRPHVIPRP, the “shrunken log2 fold change” value was -0.0939.

Turning to RRIRLRPPRLPRPRPRPTRMPRP, the “shrunken log2 fold change” value turned out to be 0.513.

As for RRIRFRPPRLPRPRPRPVDGPRP, the “shrunken log2 fold change” value was found to be 0.148.

With RRIRRRPPRLPRPRPRPIYHPRP, the “shrunken log2 fold change” value was -0.258.

With RRIRARPPRLPRPRPRPWWRPRP, the “shrunken log2 fold change” value is 0.0229.

As to RRIRFRPPRLPRPRPRPVWCPRP, the “shrunken log2 fold change” value is -0.158.

RRIRHRPPRLPRPRPRPWHHPRP: the “shrunken log2 fold change” value stood at 0.0223.

In the case of RRIRERPPRLPRPRPRPWQPPRP, the “shrunken log2 fold change” value was found to be 0.0778.

As to RRIRTRPPRLPRPRPRPYFRPRP, the “shrunken log2 fold change” value is -0.138.

Consider RRIRGRPPRLPRPRPRPTVYPRP, for which the “shrunken log2 fold change” value worked out at 0.185.

With RRIRERPPRLPRPRPRPRKNPRP, the “shrunken log2 fold change” value is -0.0182.

In the case of RRIRKRPPRLPRPRPRPVRAPRP, the “shrunken log2 fold change” value stood at 1.27.

Take RRIRFRPPRLPRPRPRPPWFPRP: the “shrunken log2 fold change” value turned out to be 0.033.

With RRIRARPPRLPRPRPRPYRLPRP, the “shrunken log2 fold change” value is -0.275.

Take RRIRSRPPRLPRPRPRPKSWPRP: the “shrunken log2 fold change” value was 0.392.

As to RRIRERPPRLPRPRPRPNEQPRP, the “shrunken log2 fold change” value was -0.215.

On to RRIRQRPPRLPRPRPRPVHAPRP, for which the “shrunken log2 fold change” value was 0.0261.

As to RRIRSRPPRLPRPRPRPEPDPRP, the “shrunken log2 fold change” value was determined as 0.953.

For RRIRGRPPRLPRPRPRPGVRPRP, the “shrunken log2 fold change” value amounted to 0.659.

Consider RRIRNRPPRLPRPRPRPFRMPRP, for which the “shrunken log2 fold change” value came out at 0.00572.

Consider RRIRVRPPRLPRPRPRPCLKPRP, for which the “shrunken log2 fold change” value was -0.469.

Regarding RRIRERPPRLPRPRPRPRLKPRP, the “shrunken log2 fold change” value is -0.0205.

Take RRIRSRPPRLPRPRPRPWANPRP: the “shrunken log2 fold change” value amounted to 0.0508.

Consider RRIRKRPPRLPRPRPRPMWFPRP, for which the “shrunken log2 fold change” value is 0.0615.

For the sequence RRIRPRPPRLPRPRPRPPWSPRP, the “shrunken log2 fold change” value is 0.00901.

Regarding RRIRIRPPRLPRPRPRPRQLPRP, the “shrunken log2 fold change” value is -0.27.

Take RRIRDRPPRLPRPRPRPRTRPRP: the “shrunken log2 fold change” value is 0.0925.

Take RRIRNRPPRLPRPRPRPKVDPRP: the “shrunken log2 fold change” value is 0.147.

RRIRPRPPRLPRPRPRPTHEPRP: the “shrunken log2 fold change” value is 0.466.

For RRIRCRPPRLPRPRPRPFWQPRP, the “shrunken log2 fold change” value was -0.0799.

On to RRIRWRPPRLPRPRPRPMLVPRP, for which the “shrunken log2 fold change” value is 0.288.

Consider RRIRCRPPRLPRPRPRPGPDPRP, for which the “shrunken log2 fold change” value is 0.359.

Take RRIRSRPPRLPRPRPRPSTVPRP: the “shrunken log2 fold change” value was -0.353.

For the sequence RRIRRRPPRLPRPRPRPYAMPRP, the “shrunken log2 fold change” value is -0.121.

Turning to RRIRFRPPRLPRPRPRPVNQPRP, the “shrunken log2 fold change” value is -0.188.

Turning to RRIRSRPPRLPRPRPRPDQLPRP, the “shrunken log2 fold change” value is -0.167.

Regarding RRIRIRPPRLPRPRPRPSDYPRP, the “shrunken log2 fold change” value is -0.385.

Regarding RRIRNRPPRLPRPRPRPKEAPRP, the “shrunken log2 fold change” value is -0.00208.

RRIRYRPPRLPRPRPRPKFAPRP: the “shrunken log2 fold change” value was -0.44.

With RRIRTRPPRLPRPRPRPKFHPRP, the “shrunken log2 fold change” value is -0.327.

As to RRIRVRPPRLPRPRPRPALFPRP, the “shrunken log2 fold change” value came to 0.175.

As to RRIRIRPPRLPRPRPRPGETPRP, the “shrunken log2 fold change” value amounted to 0.0122.

RRIRMRPPRLPRPRPRPLDQPRP: the “shrunken log2 fold change” value came to 1.12.

RRIRHRPPRLPRPRPRPAAKPRP: the “shrunken log2 fold change” value turned out to be 0.218.

On to RRIRFRPPRLPRPRPRPVRVPRP, for which the “shrunken log2 fold change” value was determined as 0.349.

With RRIRGRPPRLPRPRPRPGIDPRP, the “shrunken log2 fold change” value was 0.607.

Regarding RRIRHRPPRLPRPRPRPFLYPRP, the “shrunken log2 fold change” value was -0.624.

As for RRIRNRPPRLPRPRPRPGCHPRP, the “shrunken log2 fold change” value is -0.318.

As for RRIRARPPRLPRPRPRPTFKPRP, the “shrunken log2 fold change” value was 0.341.

Regarding RRIRCRPPRLPRPRPRPHVCPRP, the “shrunken log2 fold change” value is 0.0221.

In the case of RRIRQRPPRLPRPRPRPEQIPRP, the “shrunken log2 fold change” value was -0.0247.

Consider RRIRCRPPRLPRPRPRPNDDPRP, for which the “shrunken log2 fold change” value is -0.161.

As to RRIRSRPPRLPRPRPRPYHFPRP, the “shrunken log2 fold change” value is -1.8.

For the sequence RRIRERPPRLPRPRPRPIHCPRP, the “shrunken log2 fold change” value is -0.118.

In the case of RRIRCRPPRLPRPRPRPINEPRP, the “shrunken log2 fold change” value is -0.116.

As for RRIRVRPPRLPRPRPRPSQKPRP, the “shrunken log2 fold change” value is -0.0127.

Regarding RRIRSRPPRLPRPRPRPAVFPRP, the “shrunken log2 fold change” value was found to be 0.114.

For the sequence RRIRMRPPRLPRPRPRPQIIPRP, the “shrunken log2 fold change” value is 0.022.

As for RRIRNRPPRLPRPRPRPVPCPRP, the “shrunken log2 fold change” value is -0.237.

With RRIRLRPPRLPRPRPRPSAKPRP, the “shrunken log2 fold change” value was -0.0639.

For RRIRWRPPRLPRPRPRPYWDPRP, the “shrunken log2 fold change” value was -0.415.

As to RRIRDRPPRLPRPRPRPTTVPRP, the “shrunken log2 fold change” value was 0.258.

Take RRIRPRPPRLPRPRPRPPETPRP: the “shrunken log2 fold change” value is 0.407.
